Test results as given in patent US11306331B2, “Processes for the production of hydroxycinnamic acids using polypeptides having tyrosine ammonia lyase activity” (CysBio ApS, priority 2014, dated 2022).

Legend:
[1] = tested on: L. lactis NZ9000ΔldhΔldhB; test: Specific pHCA and CA productivity of L. lactis strains expressing TAL/PAL enzymes in CDM; type: cell-based, Lactococcus lactis; conditions: CDM
Excerpt: The synthetic RsXALI (protein GI 129592) and RmXALI (protein GI 126464011) genes, codon optimized for Lactococcus lactis (GeneArt), were cloned into the nisin inducible expression vector pNZ8048 (Kuipers et al., 1998) as follows: RsXALI (SEQ ID NO: 56) and RmXALI (SEQ ID NO: 57) genes and the vector were PCR amplified using the primers listed in Table 7, and were assembled in a single-tube isothermal reaction using the Gibson Assembly Master Mix (New England Biolabs). Reaction products were ethanol-precipitated and suspended in double distilled water before transformation into L. lactis by electroporation as described by Holo and Nes (1995). The synthetic genes encoding SeSam8, R_XAL, HaXAL1 and FjXAL described in a previous example above were amplified by PCR using the primer pairs listed in Table 1, digested with specific restriction enzymes, and cloned in-between the NcoI and XbaI restriction sites of pNZ8048. The plasmids were obtained and maintained in L. lactis NZ9000 (Kuipers et al., 1998) and the gene sequences of the different constructs were verified by sequencing.
To assess pHCA production, TAL-expression vectors were transformed into a strain derived from NZ9000, but with deletion of the genes Idh and dhB (NZ9000ΔldhΔldhB). A control strain was also constructed by transformation of NZ9000ΔldhΔldhB with empty expression vector pNZ8048.
For molecular biology procedures, L. lactis strains were cultivated as batch cultures (flasks) without aeration in M17 medium (Difco™, USA) supplemented with 0.5% glucose (w/v) at 30° C. To assess pHCA production, strains were grown as static cultures in chemically defined medium (CDM; Poolman and Konings, 1988) containing 1% glucose (wt/vol) without pH control (initial pH 6.5 or 7.0) and supplemented with 1.7 or 3.7 mM L-tyrosine. Plasmid selection was achieved by addition of 5 μg mL^−1 chloramphenicol to the growth medium. Growth was monitored by measuring OD600. For heterologous expression of cloned tyrosine ammonia lyases, L. lactis strains were grown in CDM and nisin (1.5 μg L^−1) was added at an OD600 of 0.3-0.4. Samples (1 mL) of cultures were collected at different points during growth; centrifuged (16,100×g, 10 min, 4° C.) and the supernatants stored at −20° C. until analysis by HPLC as described in a previous example above. […] The first six columns are results from media containing 1.7 mM tyrosine. The seventh and ninth columns represent samples from strains grown in media containing 3.7 mM tyrosine, and the eighth and ninth columns are data from media with 68.5 mM 3-(N-morpholino)propanesulfonic acid (MOPS) and initial pH adjusted to 7.0 rather than 6.5.

[2] = tested on: Saccharomyces cerevisiae CEN.PK102-5B; test: Specific production of pHCA and CA by S. cerevisiae expressing TAL enzymes; type: cell-based; conditions: 72 h, 30° C., +/- standard deviation
Excerpt: A number of the previously characterized enzymes were characterized when expressed in Saccharomyces cerevisiae. Genes encoding HaXAL1 and FjXAL were synthesized with codon optimization for S. cerevisiae available by GeneArt (Life Technologies), and were named HaXAL1 Sc and FjXALSc. Genes were amplified using the oligonucleotide (refer to specific name) shown in Table 6, and inserted by uracil-excision into the vector pCfB132 together with the PPGK1 promoter amplified by primers PPGK1_fw and PPGK1_rv (Jensen et al., 2014). The finished plasmids were transformed into Saccharomyces cerevisiae CEN.PK102-5B (MAT a ura3-52 his3Δ1 leu2-3/112 MAL2-8c SUC2) using a standard lithium acetate transformation protocol and selected for on synthetic drop-out media plates lacking uracil.
Cells were grown in SC medium without uracil, and diluted into Delft medium or Feed-In-Time (FIT) medium (m2p-labs) supplemented with leucine and histidine. After 72 h of incubation at 30° C. with shaking, samples were taken for the analysis of optical density at 600 nm and for clarification of the supernatant, which was analyzed by HPLC as described in example 1. The specific production was calculated as micromolar (μM) concentration per unit of optical density of the culture at 600 nm and is shown in Table 4.

[3] = tested on: E. coli BL21(DE3)pLysS cells; test: Specific production of pHCA and CA by E. coli expressing TAL/PAL enzymes; type: cell-based, Escherichia coli; conditions: 24 h after supplementation, +/- standard deviation
Method: Plasmids carrying the genes were transformed into electrocompetent E. coli BL21(DE3)pLysS cells (Life Technologies) and selected on LBplates containing 50 ug/mL streptomycin. The strains were grown in M9 minimal media containing glucose as a carbon source, and expression was induced by adding 1 mM IPTG at an optical density at 600 nm of 0.6. After three hours of growth at 30° C. the cultures were supplemented with 2 mM tyrosine, phenylalanine or histidine. After further 24 hours, samples were withdrawn for determination of the optical density at 600 nm and for the isolation of the supernatant.
The concentration of pHCA and CA in the supernatant was quantified by high performance (HPLC) and compared to chemical standards. HPLC was done on a Thermo setup using a HS-F5 column and mobile phases: 5 mM ammonium formate pH 4.0 (A) and acetonitrile (B) at 1.5 mL min-1, using a gradient elution starting at 5% B. From 0.5 min after injection to 7 min, the fraction of B increased linearly from 5% to 60%, and between 9.5 min and 9.6 the fraction of B decreased back to 5%, and remaining there until 12m pHCA and CA were quantified by measuring absorbance at 333 nm and 277 nm, respectively. The production was tested without addition of precursors or the addition of either phenylalanine or tyrosine to the growth medium.
The specific production was calculated as micromolar (μM) concentration per unit of optical density of the culture at 600 nm, and standard deviations were calculated based on triplicate experiments. HaXAL1, HaXAL2 and FjXAL are the most specific enzymes and those that reach the highest yields.

B1: RmXALLI: RmXAL expressed from a synthetic gene codon optimized for Lactococcus lactis (SEQ ID NO: 57) (protein)
chain: MAPSVDSIATSVANSLSNGLHAAAAANGGDVHKKTAGAGSLLPTTETTQLDIVERILADAGATDQIKLDGYTLTLGDVVGAARRGRSVKVADSPHIREKIDASVEFLRTQLDNSVYGVTTGFGGSADTRTEDAISLQKALLEHQLCGVLPTSMDGFALGRGLENSLPLEVVRGAMTIRVNSLTRGHSAVRIVVLEALTNFLNHGITPIVPLRGTISASGDLSPLSYIAASITGHPDSKVHVDGKIMSAQEAIALKGLQPVVLGPKEGLGLVNGTAVSASMATLALTDAHVLSLLAQALTALTVEAMVGHAGSFHPFLHDVTRPHPTQIEVARNIRTLLEGSKYAVHHETEVKVKDDEGILRQDRYPLRCSPQWLGPLVSDMIHAHAVLSLEAGQSTTDNPLIDLENKMTHHGGAFMASSVGNTMEKTRLAVALMGKVSFTQLTEMLNAGMNRALPSCLAAEDPSLSYHCKGLDIAAAAYTSELGHLANPVSTHVQPAEMGNQAINSLALISARRTAEANDVLSLLLATHLYCVLQAVDLRAMEFEHTKAFEPMVTELLKQHFGALATAEVEDKVRKSIYKRLQQNNSYDLEQRWHDTFSVATGAVVEALAGQEVSLASLNAWKVACAEKAIALTRSVRDSFWAAPSSSSPALKYLSPRTRVLYSFVREEVGVKARRGDVYLGKQEVTIGTNVSRIYEAIKSGCIAPVLVKMMA
modifications: RmXal coding sequence (codon optimized for Lactococcus lactis)
[1]
  production of CA: the only enzyme resulting in production of CA

B2: HaXAL2: tyrosine ammonia lyase derived from Herpetosiphon aurantiacus, protein GI 159898927, 552 aa (protein, listed as Herpetosiphon aurantiacus)
chain: MRHQVTLTGAGLTIEDVVRVARHHQPVGLTDNPEILQRIEDSCAYINDAVKASKPVYGVTTGFGGMADVVISSEEAADLQNNAIWYHKTGAGKLLPLADVRAAMLLRANSHMRGVSGIRLEIIQRMMTFLNANVTPHVREFGSIGASGDLVPLISITGALLGTDPAFRVDFDGENIDCLEALERLNLPRLELLPKEGLAMMNGTSVMTGIASNVLHDARILLGLALNIHGLMIQGLQGTNQSFHPFIHQHKAHTGQVWAADHMLQILEGSALSRDELDGRHEYREGDLIQDRYSLRCLPQFLGPIIDGMAYITHHLRVEINSANDNPLINTEAGASYHGGNFLGQYIGVGMDQLRYYMGLMAKHLDVQIALLVSPQFNNGLSASLVGNTDRKVNMGLKGLQISGNSIMPILGFLGNSLADRFPTHAEQFNQNINSQGFGSANLARQTIETLQQYIAIALIFGVQAVDLRTFKRTGHYNAVETLSPMTAKLYSAMREVVGKPISHERPYIWNDNEQALEQHISAIVSDITNDGIIPQAIQETLDSLRSIILFA
[2]; Delft + Tyr (10 mM)
  Specific production of CA: 0 ± 0 μM OD600-1
  Specific production of pHCA: 20 ± 6.3 μM OD600-1
[2]; Delft medium
  Specific production of CA: 0 ± 0 μM OD600-1
  Specific production of pHCA: 22 ± 5.2 μM OD600-1
[2]; FIT + Tyr (10 mM)
  Specific production of CA: 0 ± 0 μM OD600-1
  Specific production of pHCA: 26 ± 11 μM OD600-1
[2]; FIT medium
  Specific production of CA: 0 ± 0 μM OD600-1
  Specific production of pHCA: 30 ± 16 μM OD600-1
[3]; M9 + Phe (2 mM)
  Specific production of CA: 0.4 ± 0.02 μM OD600-1
  Specific production of pHCA: 20 ± 4.4 μM OD600-1
[3]; M9 + Tyr (2 mM)
  Specific production of CA: 0 ± 0 μM OD600-1
  Specific production of pHCA: 61 ± 9.7 μM OD600-1

B3: RtXAL: previously described aromatic amino acid lyase of Rhodosporidium toruloides/Rhodotorula glutinis, protein GI 129593 (protein, UniProt P11544 1-716, looked up)
Phenylalanine/tyrosine …: MAPSLDSISHSFANGVASAKQAVNGASTNLAVAGSHLPTTQVTQVDIVEKMLAAPTDSTLELDGYSLNLGDVVSAARKGRPVRVKDSDEIRSKIDKSVEFLRSQLSMSVYGVTTGFGGSADTRTEDAISLQKALLEHQLCGVLPSSFDSFRLGRGLENSLPLEVVRGAMTIRVNSLTRGHSAVRLVVLEALTNFLNHGITPIVPLRGTISASGDLSPLSYIAAAISGHPDSKVHVVHEGKEKILYAREAMALFNLEPVVLGPKEGLGLVNGTAVSASMATLALHDAHMLSLLSQSLTAMTVEAMVGHAGSFHPFLHDVTRPHPTQIEVAGNIRKLLEGSRFAVHHEEEVKVKDDEGILRQDRYPLRTSPQWLGPLVSDLIHAHAVLTIEAGQSTTDNPLIDVENKTSHHGGNFQAAAVANTMEKTRLGLAQIGKLNFTQLTEMLNAGMNRGLPSCLAAEDPSLSYHCKGLDIAAAAYTSELGHLANPVTTHVQPAEMANQAVNSLALISARRTTESNDVLSLLLATHLYCVLQAIDLRAIEFEFKKQFGPAIVSLIDQHFGSAMTGSNLRDELVEKVNKTLAKRLEQTNSYDLVPRWHDAFSFAAGTVVEVLSSTSLSLAAVNAWKVAAAESAISLTRQVRETFWSAASTSSPALSYLSPRTQILYAFVREELGVKARRGDVFLGKQEVTIGSNVSKIYEAIKSGRINNVLLKMLA
[2]; Delft + Tyr (10 mM)
  Specific production of CA: 21 ± 1.9 μM OD600-1
  Specific production of pHCA: 89 ± 13 μM OD600-1
[2]; Delft medium
  Specific production of CA: 18 ± 0.9 μM OD600-1
  Specific production of pHCA: 20 ± 0.8 μM OD600-1
[2]; FIT + Tyr (10 mM)
  Specific production of CA: 57 ± 4.1 μM OD600-1
  Specific production of pHCA: 110 ± 8.8 μM OD600-1
[2]; FIT medium
  Specific production of CA: 88 ± 2 μM OD600-1
  Specific production of pHCA: 67 ± 4.3 μM OD600-1
[3]; M9 + Phe (2 mM)
  Specific production of CA: 180 ± 16 μM OD600-1
  Specific production of pHCA: 7.2 ± 1.3 μM OD600-1
[3]; M9 + Tyr (2 mM)
  Specific production of CA: 5.9 ± 6.1 μM OD600-1
  Specific production of pHCA: 170 ± 10 μM OD600-1
